Data: article PMC11610669, “A Spectroscopic Study on the Amyloid‐β Interaction with Clicked Peptide‐Porphyrin Conjugates: a Vision Toward the Detection of Aβ Peptides in Aqueous Solution” (Chembiochem, 2024)

B1: unmetalated porphyrin-peptide conjugate Ph-Pep (peptide)
peptide: Ac-GKPGKLVFF-NH2
modifications: not fully specified (residue 2)
notes: designed N-terminal stretch of Ac-GK(N3)PGKLVFF-NH2; the K is the azidolysine that carries the porphyrin; hydrophobic core Aβ16-20 (KLVFF) of amyloid-β; numbers count on: the Aβ peptide; MALDI-TOF (M+H)+ 1876.12; calcd. for C103H121N22O13 1875.24; Structure drawn in Scheme 1 and Scheme 3; source: synthetic peptide (MW-SPPS), clicked on resin to Pra-OMe (CuAAC), porphyrin coupled on resin, cleaved …
B2: copper porphyrin-peptide conjugate Cu-Ph-Pep (peptide)
peptide: Ac-GKPGKLVFF-NH2
modifications: not fully specified (residue 2); also: porphyrin as Cu(II) complex
notes: designed N-terminal stretch of Ac-GK(N3)PGKLVFF-NH2; the K is the azidolysine that carries the porphyrin; hydrophobic core Aβ16-20 (KLVFF) of amyloid-β; numbers count on: the Aβ peptide; MALDI-TOF (M+H)+ 1937.73; calcd. for C103H118CuN22O13 1936.77; Structure drawn in Scheme 1; source: synthetic peptide (MW-SPPS), clicked in solution to Cu-Ph-Pra-OMe (CuAAC), purified by preparative HPLC
B3: zinc porphyrin-peptide conjugate Zn-Ph-Pep (peptide)
peptide: Ac-GKPGKLVFF-NH2
modifications: not fully specified (residue 2); also: porphyrin as Zn(II) complex
notes: designed N-terminal stretch of Ac-GK(N3)PGKLVFF-NH2; the K is the azidolysine that carries the porphyrin; hydrophobic core Aβ16-20 (KLVFF) of amyloid-β; numbers count on: the Aβ peptide; MALDI-TOF (M+H)+ 1939.43; calcd. for C103H119ZnN22O13 1938.60; Structure drawn in Scheme 1 and Scheme 3; source: synthetic: Ph-Pep metalated with Zn(CH3COO)2, purified by RP-HPLC

Target: T1, Amyloid-β 42 peptide (UniProt P05067 672-713)
T1 construct: Amyloid-β peptide 1-42 (Aβ42), the cut product of the amyloid precursor protein; numbers count on: the Aβ peptide; For GCI it was immobilised on a polycarboxylate chip from Na acetate pH 4.5; also called Aβ42; Aβ
T1 sequence (P05067 672-713): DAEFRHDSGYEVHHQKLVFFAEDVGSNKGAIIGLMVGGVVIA
Experiment: grating-coupled interferometry (GCI); Creoptix WAVE; Aβ42 immobilised on a 4PCH chip (1910±40 pg/mm^2); analytes injected as single-cycle 1:2 dilution series in PBS, 0.005 % Tween 20, 1 % DMSO, 0.2 mg/ml BSA; 25 °C; 100 μl/min; mass transport binding model with bulk correction
Conditions: both partners purified

Binder	Kd	koff	kon
B1	60 ± 1 µM	0.0819 s⁻¹	1370 M⁻¹ s⁻¹
B2	44 ± 6 µM	0.0931 s⁻¹	2100 M⁻¹ s⁻¹
B3	46 ± 6 µM	0.002 s⁻¹	110 M⁻¹ s⁻¹
